Legend:
[1] = target: T1, hCMV gH + gL + UL128 + UL130 + UL131A (5-member complex; HEK293T co-transfectant) (hCMV, UniProt P12824 24-743; P16832 31-278; P16837 1-171; P16772 1-214); assay: cell competition; competitor 8I21-biotin
T1 construct: whole, on cells; in the functional rows it stands for the complex on virions or transduced cells of the strain or isolate named in the readout; also called gH/gL/UL128-131A complex; pentameric complex

[2] = target: T1, hCMV gH + gL + UL128 + UL130 + UL131A …; assay: cell competition; competitor 1F11-biotin
[3] = target: T1, hCMV gH + gL + UL128 + UL130 + UL131A …; assay: cell-based or functional assay
[4] = target: T2, hCMV UL130 + UL131A (HEK293T co-transfectant) (hCMV, UniProt P16772 1-214); assay: cell-based or functional assay
[5] = target: T1, hCMV gH + gL + UL128 + UL130 + UL131A …; assay: cell competition; competitor 2F4-biotin
[6] = target: T1, hCMV gH + gL + UL128 + UL130 + UL131A …; assay: cell-based or functional assay; remark: listed apart in the source
[7] = target: T1, hCMV gH + gL + UL128 + UL130 + UL131A …; assay: cell competition; competitor 4I22-biotin
[8] = target: soluble 5-member complex (gH, gL, UL128, UL130, UL131A) (hCMV, UniProt P12824 24-716; P16832 31-278; P16837 28-171; P16772 26-214); assay: Biacore SPR, soluble 5-member complex
[9] = target: hCMV UL130 W179R (virus selected with 4I22) (hCMV); assay: cell-based or functional assay
[10] = target: T1, hCMV gH + gL + UL128 + UL130 + UL131A …; assay: cell-based or functional assay; remark: listed apart in the source
[11] = target: hCMV UL130 Q191K (virus selected with 4I22) (hCMV); assay: cell-based or functional assay
[12] = target: T1, hCMV gH + gL + UL128 + UL130 + UL131A …; assay: cell competition; competitor 8J16-biotin
[13] = target: T1, hCMV gH + gL + UL128 + UL130 + UL131A …; assay: cell competition; competitor 5A2-biotin
[14] = target: T1, hCMV gH + gL + UL128 + UL130 + UL131A …; assay: cell competition; competitor 4N10-biotin
[15] = target: T2, hCMV UL130 + UL131A (HEK293T …); assay: cell-based or functional assay; remark: listed apart in the source
[16] = target: T1, hCMV gH + gL + UL128 + UL130 + UL131A …; assay: cell competition; competitor 2C12-biotin
[17] = target: T1, hCMV gH + gL + UL128 + UL130 + UL131A …; assay: cell competition; competitor 10F7-biotin

B1: 4I22 (antibody, human IgG1, V domains shown)
VH: QVQLVESGGGVVQPGRSLRLSCVASGFTFSSYAMHWVRQAPGKGLEWVAVISYDGDNKFYADSVKGRFRISRDTSKNTLYLEMNSLRAADTAIYYCAREELVGLMPPYYNYGLDVWGQGTTVTVSS
VL: QSVLTQPPSVSAAPGQKVTISCSGSNSNIGNNYVSWYQQLPGRAPKLLIYDNDHRPSGIPDRFSGSKSGTSATLVITGLQTGDEADYYCETWDTSLSAAVVFGGGTKLTVL
notes: fully human IgG1 with unaltered Fc; also called 4I22-biotin; 4122
With B1 the “Inhibition of binding (%)” value [1] was 0%, the “Inhibition of binding (%)” value [2] was 100% and the “EC90 neutralization HUVEC, isolate TM-20749” value [3] was 0.011 µg/mL. For the same binder, the “EC90 neutralization HUVEC, isolate TM-31354” value [3] was 0.012 µg/mL, the “EC90 neutralization HUVEC, isolate TM-E5271” value [3] was 0.001 µg/mL and the “EC90 neutralization HUVEC, isolate TM-E9361” value [3] was 0.016 µg/mL. The “EC90 neutralization HUVEC, isolate TM-E14953” value [3] was 0.012 µg/mL, the “EC90 neutralization HUVEC, isolate TM-E19664” value [3] was 0.013 µg/mL and the “EC90 neutralization HUVEC, isolate TM-E20744” value [3] was 0.02 µg/mL. For the same binder, the “EC90 neutralization HUVEC, isolate TM-E28175” value [3] was 0.009 µg/mL, the “EC90 neutralization HUVEC, isolate TM-E28257” value [3] was 0.001 µg/mL and the “90% neutralization VR1814, ARPE” value [4] was 0.0015 µg/mL. For the same binder, the “90% neutralization VR1814, MRC-9” value [4] was > 10 µg/mL, the “Inhibition of binding (%)” value [5] was 100% and the “neutralization of ARPE infection, isolate TM-20749” value [6] was 0.01 µg/mL. For the same binder, the “neutralization of ARPE infection, isolate TM-31354” value [6] was 0.028 µg/mL, the “neutralization of ARPE infection, isolate TM-E5271” value [6] was 0.01 µg/mL and the “neutralization of ARPE infection, isolate TM-E9361” value [6] was 0.002 µg/mL. The “neutralization of ARPE infection, isolate TM-E14953” value [6] was 0.012 µg/mL, the “neutralization of ARPE infection, isolate TM-E19664” value [6] was 0.016 µg/mL and the “neutralization of ARPE infection, isolate TM-E20744” value [6] was 0.01 µg/mL. The “neutralization of ARPE infection, isolate TM-E28175” value [6] was 0.006 µg/mL, the “neutralization of ARPE infection, isolate TM-E28257” value [6] was 0.009 µg/mL and the “Inhibition of binding (%)” value [7] was 100%. The Kd [8] was 0.31 nM, the “fold decrease in susceptibility of escape virus” value [9] was > 50000 fold and the “EC50 inhibition of cell-cell fusion” value [10] was 0.076 µg/mL. The “fold decrease in susceptibility of escape virus” value [11] was > 50000 fold, the “Inhibition of binding (%)” value [12] was 0% and the “Inhibition of binding (%)” value [13] was 0%. The “Inhibition of binding (%)” value [14] was 0%, the “50% neutralization VR1814, ARPE” value [15] was < 0.01 µg/mL and the “50% neutralization VR1814, MRC-9” value [15] was > 2 µg/mL. For the same binder, the “Inhibition of binding (%)” value [16] was 0% and the “Inhibition of binding (%)” value [17] was 100%.

Source: patent US20170296650A1 (Novartis, published 2017)
